From patent publication US20030037355, “Methods and compositions to modulate expression in plants” (published 2003)

What was measured:
[1] = molecular target: T1, ZFPm4 six-finger zinc finger protein (Sp1C framework) (artificial); assay: ELISA, 15.5 ug/ml protein, non-target; conditions: tags: MBP fusion (pMAL-C2), E. coli, hairpin
Method: (§1) Coat ELISA plates (Costar 3690) with streptavidin. Use 25 ul/well of 8 ug/ml streptavidin in PBS. Incubate at 37° C. for 1 hr. Wash 2× with dH2O. Bind wells with 25 ul/well of 4 ng/ul biotinylated target oligonucleotide in PBS. Incubate at 37° C. for 1 hr. Wash 2× with dH2O. Block with 175 ul/well of 3% BSA in Zn Buffer A. Incubate at 37° C. for 1 hr. Tap plates dry. Perform 1:2 serial dilutions of extract in Binding Buffer (1%BSA, 5 mM DTT, .12 ug/ul Salmon Sperm DNA in ZnBA). Usually from 1:4 to 1:512 for multi-target ELISA or 1:4 to 1:32 for screening clones for specific DNA binding activity. Incubate 1 hr at room temperature. Wash 8× with dH2O. Add primary antibody: 25 ul/well of 1:1000 dilution of mouse anti-MBP (Sigma M-6295) in 1%BSA ZnBA (no DTT). Incubate 30 min at room temperature. Wash 8× with dH2O. Add secondary antibody: 25 ul/well of 1:1000 dilution of goat anti-mouse/Alkaline Phosphatase (Pierce 31324) in 1%BSA ZnBA (no DTT). Incubate 30 min at room temperature. Wash 8× with dH2O. Develop with 25 ul developer (1 tablet of Sigma 104 Phosphatase Substrate (Sigma 104-105)/5 ml AP Developing Buffer [100 ml diethanolamine+0.05 g MgCl2+97.5 Sodium Azide, adjust to 500 ml with ddH2O, pH 9.88]). Incubate at room temperature for 5-60 min until color reaction is yellow. Read A405 with a plate reader.
(§2) To evaluate the specificity of new zinc finger protein, the affinity of each protein was determined for binding to the target sequence and several non-target sequences at appropriate protein concentration. For example, to protein ZFPm1 and ZFPm2, the non-target oligoes are: Oligo m34 (SEQ ID NO:20), Oligo Ap3 (SEQ ID NO:21), NRI-1 (SEQ ID NO:22), NRI-2 (SEQ ID NO:23), hHD-I (SEQ ID NO:24), hHD-II (SEQ ID NO:25), c5cl-g (SEQ ID NO:26), c5p3-g (SEQ ID NO:27), B3c2 (SEQ ID NO:28), and e2c-g (SEQ ID NO:29). Similarly, to protein ZFPm3 and ZFPm4, the non-target oligoes are Oligo m12 (SEQ ID NO:19), oligo Ap3 (SEQ ID NO:21), and the eight other oligoes. To protein ZFPAp3, the non-target oligoes are Oligo m12, oligo m34 (SEQ ID NO:20), and the eight other oligoes. The affinity reading for target oligo was further normalized to the no oligo control which has the least affinity.

[2] = molecular target: T2, ZFPm2 six-finger zinc finger protein (Sp1C framework) (artificial); assay: ELISA, 15.5 ug/ml protein, non-target; conditions: tags: MBP fusion (pMAL-C2), E. coli, hairpin
Method: as §1, §2

[3] = molecular target: T3, ZFPAp3 six-finger zinc finger protein (Sp1C framework) (artificial); assay: ELISA, 31.0 ug/ml protein, non-target; conditions: tags: MBP fusion (pMAL-C2), E. coli, hairpin
Method: as §1, §2

[4] = molecular target: T4, ZFPm1 six-finger zinc finger protein (Sp1C framework) (artificial); assay: ELISA, 31.0 ug/ml protein, non-target; conditions: tags: MBP fusion (pMAL-C2), E. coli, hairpin
Method: as §1, §2

[5] = molecular target: T5, ZFPm3 six-finger zinc finger protein (Sp1C framework) (artificial); assay: ELISA, 1.9 ug/ml protein, non-target; conditions: tags: MBP fusion (pMAL-C2), E. coli, hairpin
Method: as §1, §2

[6] = molecular target: T4, ZFPm1 six-finger zinc finger protein …; assay: ELISA, 31.0 ug/ml protein; conditions: tags: MBP fusion (pMAL-C2), E. coli; label: 5'-biotin (ELISA); 32P (gel shift); hairpin
Method: as §1, with “Develop with 25 ul developer (1 tablet of Sigma 104 Phosphatase Substrate (Sigma 104-105)/5 ml AP Developing Buffer [100 ml diethanolamine+0.05 g MgCl2+97.5 Sodium Azide, adjust to 500 ml with ddH2O, pH 9.88]). Incubate at room temperature for 5-60 min until color reaction is yellow.” left out
(§3) To evaluate the specificity of new zinc finger protein, the affinity of each protein was determined for binding to the target sequence and several non-target sequences at appropriate protein concentration. […] The affinity reading for target oligo was further normalized to the no oligo control which has the least affinity.

[7] = molecular target: T2, ZFPm2 six-finger zinc finger protein …; assay: EMSA; Zn Buffer A, 10% glycerol, 0.8% BSA, salmon sperm DNA, room temp; conditions: tags: MBP fusion (pMAL-C2), E. coli; label: 5'-biotin (ELISA); 32P (gel shift); hairpin
Method: (§4) The affinity of the purified six-finger proteins was measured using gel shift assay. The target oligos used in the ELISA assays were radioactively labeled using [γ32P]-ddATPk and terminal transferase. Ten serial dilutions of 1:3 with the purified protein (starting with ˜1 mg/ml) in binding buffer (1 pM labeled oligo, 10% Glycerol, 0.8% BSA, 0.1 ug/ul salmon sperm DNA in Zn Buffer A) were performed. The ZFP was allowed to bind at room temperature for 1 hr. The samples were then run on 5-6% non-denaturing PAGE gel in TBE. The gel was dried and exposed with Phosphoimager. The affinity (Kd) of the ZFP was calculated from this gel. The Kd value is the concentration of the protein at which half of the labeled oligo is shifted to a higher molecular weight on the gel by binding to the ZFP. […] Most of these affinities compare favorably with the existed 6 finger proteins.

[8] = molecular target: T4, ZFPm1 six-finger zinc finger protein …; assay: as above; conditions: tags: MBP fusion (pMAL-C2), E. coli; label: 5'-biotin (ELISA); 32P (gel shift); hairpin
Method: as §4

[9] = molecular target: T2, ZFPm2 six-finger zinc finger protein …; assay: ELISA, 15.5 ug/ml protein; conditions: tags: MBP fusion (pMAL-C2), E. coli; label: 5'-biotin (ELISA); 32P (gel shift); hairpin
Method: as §1, with “Develop with 25 ul developer (1 tablet of Sigma 104 Phosphatase Substrate (Sigma 104-105)/5 ml AP Developing Buffer [100 ml diethanolamine+0.05 g MgCl2+97.5 Sodium Azide, adjust to 500 ml with ddH2O, pH 9.88]). Incubate at room temperature for 5-60 min until color reaction is yellow.” left out
as §3

[10] = molecular target: ZFPm4-VP64 (artificial); assay: cell_activity; endogenous MIPS in maize HE89 protoplasts; conditions: tags: VP64
Description: A maize type II cell line HE89 was used to evaluate the ZFPmips-effector fusion constructs function (FIG. 22). Protoplasts from HE89 suspension cells were isolated and transformed using standard procedures (Chourey and Zurawski, 1981). The activation constructs pND3015, pND3023, pND3024, and pND3016 were transformed into freshly prepared protoplasts. The transcription level of MIPS gene was detected through quantitative PCR. With pND3016 (ZFPm4-VP64 activation constructs), at least 2-fold of activation is detected (FIG. 23). We also measured phytic acid concentration in maize tissues that were transformed by the activation construct of pND3016.

[11] = molecular target: T3, ZFPAp3 six-finger zinc finger protein …; assay: ELISA, 31.0 ug/ml protein; conditions: tags: MBP fusion (pMAL-C2), E. coli; label: 5'-biotin (ELISA); 32P (gel shift); hairpin
Method: as §1, with “Develop with 25 ul developer (1 tablet of Sigma 104 Phosphatase Substrate (Sigma 104-105)/5 ml AP Developing Buffer [100 ml diethanolamine+0.05 g MgCl2+97.5 Sodium Azide, adjust to 500 ml with ddH2O, pH 9.88]). Incubate at room temperature for 5-60 min until color reaction is yellow.” left out
as §3

[12] = molecular target: T3, ZFPAp3 six-finger zinc finger protein …; assay: EMSA; Zn Buffer A, 10% glycerol, 0.8% BSA, salmon sperm DNA, room temp; conditions: tags: MBP fusion (pMAL-C2), E. coli; label: 5'-biotin (ELISA); 32P (gel shift); hairpin
Method: as §4

[13] = molecular target: T5, ZFPm3 six-finger zinc finger protein …; assay: ELISA, 1.9 ug/ml protein; conditions: tags: MBP fusion (pMAL-C2), E. coli; label: 5'-biotin (ELISA); 32P (gel shift); hairpin
Method: as §1, with “Develop with 25 ul developer (1 tablet of Sigma 104 Phosphatase Substrate (Sigma 104-105)/5 ml AP Developing Buffer [100 ml diethanolamine+0.05 g MgCl2+97.5 Sodium Azide, adjust to 500 ml with ddH2O, pH 9.88]). Incubate at room temperature for 5-60 min until color reaction is yellow.” left out
as §3

[14] = molecular target: T5, ZFPm3 six-finger zinc finger protein …; assay: EMSA; Zn Buffer A, 10% glycerol, 0.8% BSA, salmon sperm DNA, room temp; conditions: tags: MBP fusion (pMAL-C2), E. coli; label: 5'-biotin (ELISA); 32P (gel shift); hairpin
Method: as §4

[15] = molecular target: T1, ZFPm4 six-finger zinc finger protein …; assay: as above; conditions: tags: MBP fusion (pMAL-C2), E. coli; label: 5'-biotin (ELISA); 32P (gel shift); hairpin
Method: as §4

[16] = molecular target: T1, ZFPm4 six-finger zinc finger protein …; assay: ELISA, 15.5 ug/ml protein; conditions: tags: MBP fusion (pMAL-C2), E. coli; label: 5'-biotin (ELISA); 32P (gel shift); hairpin
Method: as §1, with “Develop with 25 ul developer (1 tablet of Sigma 104 Phosphatase Substrate (Sigma 104-105)/5 ml AP Developing Buffer [100 ml diethanolamine+0.05 g MgCl2+97.5 Sodium Azide, adjust to 500 ml with ddH2O, pH 9.88]). Incubate at room temperature for 5-60 min until color reaction is yellow.” left out
as §3

[17] = molecular target: SID-ZFPAp3 (artificial); assay: cell_activity; endogenous AP3, transgenic Arabidopsis ND0052-2e; 5 fold in ND0052-257; conditions: tags: SID
[18] = label: 5'-biotin (ELISA), 32P (gel shift)

T2 sequence (chain, as listed by the source): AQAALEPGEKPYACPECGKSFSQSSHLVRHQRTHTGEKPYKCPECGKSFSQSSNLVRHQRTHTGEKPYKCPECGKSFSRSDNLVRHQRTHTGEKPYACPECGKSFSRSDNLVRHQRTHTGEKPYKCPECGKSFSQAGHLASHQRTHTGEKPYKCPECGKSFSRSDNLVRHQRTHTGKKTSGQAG
T3 sequence (chain, as listed by the source): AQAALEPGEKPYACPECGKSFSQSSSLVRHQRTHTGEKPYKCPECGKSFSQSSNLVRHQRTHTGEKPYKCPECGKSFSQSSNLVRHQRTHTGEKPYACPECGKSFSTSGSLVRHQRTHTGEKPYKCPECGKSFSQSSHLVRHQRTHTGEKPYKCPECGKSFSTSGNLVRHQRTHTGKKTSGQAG
T5 sequence (chain, as listed by the source): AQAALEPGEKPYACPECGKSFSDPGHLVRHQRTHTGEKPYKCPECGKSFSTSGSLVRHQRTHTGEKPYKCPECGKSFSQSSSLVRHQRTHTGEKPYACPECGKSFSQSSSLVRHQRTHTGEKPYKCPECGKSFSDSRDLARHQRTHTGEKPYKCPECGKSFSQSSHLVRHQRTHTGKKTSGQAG
T4 sequence (chain, as listed by the source): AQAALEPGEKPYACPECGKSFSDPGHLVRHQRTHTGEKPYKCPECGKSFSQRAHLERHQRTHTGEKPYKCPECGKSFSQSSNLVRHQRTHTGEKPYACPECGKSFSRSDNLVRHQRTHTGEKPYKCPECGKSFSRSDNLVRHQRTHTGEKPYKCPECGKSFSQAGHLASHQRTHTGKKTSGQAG

Binder | binding signal ([1]; label: 5'-biotin) [fold over no oligo] | binding signal ([2]; label: 5'-biotin) [fold over no oligo] | binding signal ([3]; label: 5'-biotin) [fold over no oligo] | binding signal ([4]; label: 5'-biotin) [fold over no oligo] | binding signal ([5]; label: 5'-biotin) [fold over no oligo] | other results
GGACCCACCGCGTCCCCTCCGGGTTTTCCCGGAGGGGACGCGGTGGGTCC (dsDNA) [B3c2] | 5 | 4 | 3 | 4 | 3 | 
m12 hairpin oligo (dsDNA) DNA: GGAGCCTCCTTCCTCCTCTCACTCGGGTTTTCCCGAGTGAGAGGAGGAAGGAGGCTCC |  |  |  |  |  | binding signal [1, 18]: 4 fold over no oligo; binding signal [6]: 18 fold over no oligo; binding signal [3, 18]: 14 fold over no oligo; Kd [7]: 7.5 nM; Kd [8]: 2 nM; binding signal [5, 18]: 3 fold over no oligo; binding signal [9]: 23 fold over no oligo
GGTTCTACCCCTCCCACCGCGGGTTTTCCCGCGGTGGGAGGGGTAGAACC (dsDNA) [NRI-1] | 5 | 7 | 8 | 5 | 4 | 
m4 endogenous MIPS target site (dsDNA) DNA 1: GGTGAGGGAGCCGTAGTA DNA 2: TACTACGGCTCCCTCACC |  |  |  |  |  | activity [10]: ≥ 2 fold activation
Ap3 hairpin oligo (dsDNA) DNA: GGTTACTTCTTCAACTCCATCGGGTTTTCCCGATGGAGTTGAAGAAGTAACC |  |  |  |  |  | binding signal [1, 18]: 2 fold over no oligo; binding signal [2, 18]: 3 fold over no oligo; binding signal [11]: 27 fold over no oligo; binding signal [4, 18]: 4 fold over no oligo; Kd [12]: 2.3 nM; binding signal [5, 18]: 7 fold over no oligo
GGGGCCCCGCCTCCGCCGGCGGGTTTTCCCGCCGGCGGAGGCGGGGCCCC (dsDNA) [hHD-I] | 2 | 3 | 2 | 5 | 1 | 
GGGACACCCCCAACCCCGCCGGGTTTTCCCGGCGGGGTTGGGGGTGTCCC (dsDNA) [c5c1-g] | 3 | 5 | 2 | 7 | 3 | 
m34 hairpin oligo (dsDNA) DNA: GGAGCCAACTACTACGGCTCCCTCACCGGGTTTTCCCGGTGAGGGAGCCGTAGTAGTTGGCTCC |  |  |  |  |  | binding signal [2, 18]: 13 fold over no oligo; binding signal [3, 18]: 10 fold over no oligo; binding signal [4, 18]: 5 fold over no oligo; binding signal [13]: 13 fold over no oligo; Kd [14]: 0.18 nM; Kd [15]: 0.25 nM; binding signal [16]: 16 fold over no oligo
AP3 endogenous target site (dsDNA) DNA 1: GATGGAGTTGAAGAAGTA DNA 2: TACTTCTTCAACTCCATC |  |  |  |  |  | activity [17]: 46 fold repression
GGCTCTGCTCATCCCACTACGGGTTTTCCCGTAGTGGGATGAGCAGAGCC (dsDNA) [c5p3-g] | 2 | 3 | 2 | 3 | 3 | 
GGTGCGGCGACTGCAGCAGCGGGTTTTCCCGCTGCTGCAGTCGCCGCACC (dsDNA) [NRI-2] | 3 | 2 | 4 | 4 | 6 | 
GGGGCAGCCCCCACGGCGCCGGGTTTTCCCGGCGCCGTGGGGGCTGCCCC (dsDNA) [hHD-II] | 2 | 2 | 2 | 4 | 3 | 
GGCACTGCGGCTCCGGCCCCGGGTTTTCCCGGGGCCGGAGCCGCAGTGCC (dsDNA) [e2c-g] | 5 | 2 | 3 | 2 | 9 | 
